Molecular target: human GST-E1 (Boston Biochem) (UniProt P22314)
Sequence (P22314 whole entry): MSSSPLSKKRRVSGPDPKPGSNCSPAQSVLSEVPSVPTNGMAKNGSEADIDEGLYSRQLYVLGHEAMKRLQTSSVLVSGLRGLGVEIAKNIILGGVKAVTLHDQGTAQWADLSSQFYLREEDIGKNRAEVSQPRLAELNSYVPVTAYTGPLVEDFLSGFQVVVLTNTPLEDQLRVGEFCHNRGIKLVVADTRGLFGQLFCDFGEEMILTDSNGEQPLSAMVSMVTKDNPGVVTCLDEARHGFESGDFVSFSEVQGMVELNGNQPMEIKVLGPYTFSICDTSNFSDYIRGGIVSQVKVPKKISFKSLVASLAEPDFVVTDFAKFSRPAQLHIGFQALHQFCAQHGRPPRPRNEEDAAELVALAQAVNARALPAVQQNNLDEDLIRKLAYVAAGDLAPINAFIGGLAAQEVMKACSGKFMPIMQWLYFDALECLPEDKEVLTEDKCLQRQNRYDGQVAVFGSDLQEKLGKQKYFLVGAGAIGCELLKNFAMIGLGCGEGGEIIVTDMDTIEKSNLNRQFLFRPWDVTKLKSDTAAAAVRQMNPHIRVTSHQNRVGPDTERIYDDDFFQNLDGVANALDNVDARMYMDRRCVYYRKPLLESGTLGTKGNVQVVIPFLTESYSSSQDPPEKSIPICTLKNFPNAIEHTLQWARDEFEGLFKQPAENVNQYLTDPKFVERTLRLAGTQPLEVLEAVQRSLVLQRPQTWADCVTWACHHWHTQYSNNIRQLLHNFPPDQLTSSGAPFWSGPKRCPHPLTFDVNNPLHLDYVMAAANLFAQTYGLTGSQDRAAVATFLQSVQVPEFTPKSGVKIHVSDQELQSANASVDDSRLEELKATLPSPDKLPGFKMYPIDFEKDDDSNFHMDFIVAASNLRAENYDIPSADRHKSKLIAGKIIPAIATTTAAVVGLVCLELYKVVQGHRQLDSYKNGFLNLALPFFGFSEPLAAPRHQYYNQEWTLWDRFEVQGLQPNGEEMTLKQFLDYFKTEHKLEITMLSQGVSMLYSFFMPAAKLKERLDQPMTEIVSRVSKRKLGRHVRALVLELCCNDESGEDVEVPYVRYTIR

Substance: His6-Parkin (full-length human Parkin fused to an N-terminal histidine tag, from E. coli, refolded)
- ubiquitination of Parkin in the absence of UbCH7 (biotin-ubiquitin Western blot, NeutrAvidin-HRP): some reaction product was seen in the absence of UbCH7 when Parkin was incubated with E1 and ubiquitin for 90 minutes
